Data: the RNAGym collection of RNA variant scans (doi:10.1073/pnas.2313332121)

B1: TPR t1 (parent)
chain: GACCAAUCUGCCCUCAGAGCUCGAGAACAUCUUCGGAUGCAGAGGAGGCAGGCUUCGGUGGCGCGAUAGCGCCAACGUCCUCAACCUCCAAUGCAUCCCACCACAUGAUGAUGCCUGAAGAGCCUUGGUUUUUUG

Variants of: B1
Test: polymerase ribozyme fitness, log enrichment relative to wild type (log ratio); higher = more active; in vitro selection for triplet polymerase activity
Outline: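 Frozen incubation at −7 °C formed the core of a single, triplicate in vitro selection round applied to PCR-built, transcribed mutant libraries of each subunit of a heterodimeric triplet polymerase ribozyme. Extended constructs were gel-excised, captured with streptavidin beads and amplified by RT-PCR, and input and output libraries were Illumina-sequenced with a filter of ≥10 input reads and ≥1 read per output. Fitness is the logarithm of genotype enrichment relative to wild-type enrichment, with inverse-variance-weighted replicate averaging, and the logarithm is base 2.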

**Q.** For U54A U96C, which “polymerase ribozyme fitness (log ratio)” value is on record?
**A.** 0.104

**Q.** Which “polymerase ribozyme fitness (log ratio)” value does the source give for C56U C80U C101U A121C here?
**A.** 0.686

**Q.** With C53U C123U as the variant, how does the “polymerase ribozyme fitness (log ratio)” value read?
**A.** 1.1

**Q.** With U54A G113A C123U as the variant, how does the “polymerase ribozyme fitness (log ratio)” value read?
**A.** -2.23

**Q.** With U54A U92G as the variant, how does the “polymerase ribozyme fitness (log ratio)” value read?
**A.** -2.06

**Q.** For C53U U81C C88A, which “polymerase ribozyme fitness (log ratio)” value is on record?
**A.** -1.58

**Q.** With U54C G69U G127C as the variant, how does the “polymerase ribozyme fitness (log ratio)” value read?
**A.** -0.892

**Q.** Which “polymerase ribozyme fitness (log ratio)” value does the source give for C56A U112A here?
**A.** 1.46

**Q.** For C56G C80A, which “polymerase ribozyme fitness (log ratio)” value is on record?
**A.** -1.38

**Q.** With C56A G71A A100U as the variant, how does the “polymerase ribozyme fitness (log ratio)” value read?
**A.** -5.55

**Q.** Which “polymerase ribozyme fitness (log ratio)” value does the source give for C56G G69U here?
**A.** -0.682

**Q.** For U54G C102U, which “polymerase ribozyme fitness (log ratio)” value is on record?
**A.** -1.84

**Q.** With C56U G117A as the variant, how does the “polymerase ribozyme fitness (log ratio)” value read?
**A.** -1.46

**Q.** Which “polymerase ribozyme fitness (log ratio)” value does the source give for U54C C94G C99U here?
**A.** -4.42

**Q.** For C56G C79U, which “polymerase ribozyme fitness (log ratio)” value is on record?
**A.** -0.342

**Q.** Which “polymerase ribozyme fitness (log ratio)” value does the source give for C53U G71C C82G here?
**A.** -0.812

**Q.** Which “polymerase ribozyme fitness (log ratio)” value does the source give for C56U C82G U130C here?
**A.** -0.672

**Q.** For U55C C62G G128U, which “polymerase ribozyme fitness (log ratio)” value is on record?
**A.** -4.02

**Q.** With C56G C64U as the variant, how does the “polymerase ribozyme fitness (log ratio)” value read?
**A.** -0.732

**Q.** With C53U C89U as the variant, how does the “polymerase ribozyme fitness (log ratio)” value read?
**A.** -0.632

**Q.** With C56G U87A G120A as the variant, how does the “polymerase ribozyme fitness (log ratio)” value read?
**A.** -0.872

**Q.** With C56A U92A as the variant, how does the “polymerase ribozyme fitness (log ratio)” value read?
**A.** -3.75

**Q.** For C56A U92G, which “polymerase ribozyme fitness (log ratio)” value is on record?
**A.** -2.6

**Q.** With C56U G63U as the variant, how does the “polymerase ribozyme fitness (log ratio)” value read?
**A.** -4.18

**Q.** With U54C G71C A91U U116C as the variant, how does the “polymerase ribozyme fitness (log ratio)” value read?
**A.** -5.63

**Q.** With C56U C70A C115A G122A as the variant, how does the “polymerase ribozyme fitness (log ratio)” value read?
**A.** -3.13

**Q.** For C56G A68G C73A A111G G135U, which “polymerase ribozyme fitness (log ratio)” value is on record?
**A.** -6.08

**Q.** With C56A G61C as the variant, how does the “polymerase ribozyme fitness (log ratio)” value read?
**A.** -5.03

**Q.** With U54G A75U C89U as the variant, how does the “polymerase ribozyme fitness (log ratio)” value read?
**A.** -0.98

**Q.** For C56U A90G U132A, which “polymerase ribozyme fitness (log ratio)” value is on record?
**A.** 0.308

**Q.** Which “polymerase ribozyme fitness (log ratio)” value does the source give for C56U U96A U106A here?
**A.** -0.662

**Q.** For C56A G113C, which “polymerase ribozyme fitness (log ratio)” value is on record?
**A.** -1.7

**Q.** Which “polymerase ribozyme fitness (log ratio)” value does the source give for C56A U87G A108G G113C here?
**A.** -3.65

**Q.** Which “polymerase ribozyme fitness (log ratio)” value does the source give for U55A G77A A111U C114U here?
**A.** -5.73

**Q.** Which “polymerase ribozyme fitness (log ratio)” value does the source give for C56U C70U U96A here?
**A.** -2.06

**Q.** With U54A U81A as the variant, how does the “polymerase ribozyme fitness (log ratio)” value read?
**A.** -0.628

**Q.** With U54G U112A G117C as the variant, how does the “polymerase ribozyme fitness (log ratio)” value read?
**A.** -4.03

**Q.** For C56A G61A U92C, which “polymerase ribozyme fitness (log ratio)” value is on record?
**A.** -4.04

**Q.** For C56A C86U, which “polymerase ribozyme fitness (log ratio)” value is on record?
**A.** -0.995

**Q.** With C56A C64U as the variant, how does the “polymerase ribozyme fitness (log ratio)” value read?
**A.** -0.751

**Q.** For U55C G71C C104U, which “polymerase ribozyme fitness (log ratio)” value is on record?
**A.** -0.984

**Q.** For C53U U92G, which “polymerase ribozyme fitness (log ratio)” value is on record?
**A.** -2.82

**Q.** With U54G C86A U129G as the variant, how does the “polymerase ribozyme fitness (log ratio)” value read?
**A.** -0.985

**Q.** For C53U U81A, which “polymerase ribozyme fitness (log ratio)” value is on record?
**A.** -1.63

**Q.** With U55A C62U C72U G120A as the variant, how does the “polymerase ribozyme fitness (log ratio)” value read?
**A.** -0.106

**Q.** Which “polymerase ribozyme fitness (log ratio)” value does the source give for U54A C101U G120A here?
**A.** 0.15

**Q.** With C56U U67G G71A C80U G120C as the variant, how does the “polymerase ribozyme fitness (log ratio)” value read?
**A.** -6.12

**Q.** Which “polymerase ribozyme fitness (log ratio)” value does the source give for C53U U59C here?
**A.** -0.508

**Q.** For U55C U59G C114U, which “polymerase ribozyme fitness (log ratio)” value is on record?
**A.** -1.28

**Q.** With C53U C101G as the variant, how does the “polymerase ribozyme fitness (log ratio)” value read?
**A.** -1.42

**Q.** With C56A C115U U130A as the variant, how does the “polymerase ribozyme fitness (log ratio)” value read?
**A.** -1.24

**Q.** Which “polymerase ribozyme fitness (log ratio)” value does the source give for U54G C56U here?
**A.** -4.05

**Q.** With C53U C86G C115U as the variant, how does the “polymerase ribozyme fitness (log ratio)” value read?
**A.** -1.83

**Q.** With C56A G60U as the variant, how does the “polymerase ribozyme fitness (log ratio)” value read?
**A.** 0.0473

**Q.** Which “polymerase ribozyme fitness (log ratio)” value does the source give for U55G U130G here?
**A.** -0.58

**Q.** Which “polymerase ribozyme fitness (log ratio)” value does the source give for C56A C72G A90G here?
**A.** -1.05

**Q.** With C56G A66G C94A as the variant, how does the “polymerase ribozyme fitness (log ratio)” value read?
**A.** -2.49

**Q.** With C56A C80A as the variant, how does the “polymerase ribozyme fitness (log ratio)” value read?
**A.** -2.22

**Q.** Which “polymerase ribozyme fitness (log ratio)” value does the source give for U55G here?
**A.** 0.0266

**Q.** For U55C, which “polymerase ribozyme fitness (log ratio)” value is on record?
**A.** -0.521

**Q.** For U55A, which “polymerase ribozyme fitness (log ratio)” value is on record?
**A.** -0.12

**Q.** Which “polymerase ribozyme fitness (log ratio)” value does the source give for C56G C82G C115G A121U here?
**A.** -0.801

**Q.** Which “polymerase ribozyme fitness (log ratio)” value does the source give for U55A G61U here?
**A.** -0.0687

**Q.** With C56U C64U as the variant, how does the “polymerase ribozyme fitness (log ratio)” value read?
**A.** -1.54

**Q.** For U55G C73G C123U, which “polymerase ribozyme fitness (log ratio)” value is on record?
**A.** 0.666

**Q.** For U55G C72G A100C A111U, which “polymerase ribozyme fitness (log ratio)” value is on record?
**A.** -4.23

**Q.** For C56A C115A, which “polymerase ribozyme fitness (log ratio)” value is on record?
**A.** -0.059

**Q.** Which “polymerase ribozyme fitness (log ratio)” value does the source give for C56A C73A C94U G113A here?
**A.** -2.48

**Q.** For C56G G113C, which “polymerase ribozyme fitness (log ratio)” value is on record?
**A.** -1.92

**Q.** Which “polymerase ribozyme fitness (log ratio)” value does the source give for U54C C72U here?
**A.** -0.0207

**Q.** Which “polymerase ribozyme fitness (log ratio)” value does the source give for U54G C62G U81A C98U here?
**A.** -4.8

**Q.** Which “polymerase ribozyme fitness (log ratio)” value does the source give for U54A C64U A95C here?
**A.** -0.888

**Q.** For U54G C62A U78C C123U U126A, which “polymerase ribozyme fitness (log ratio)” value is on record?
**A.** -6.39

**Q.** With C56G C89G A90C as the variant, how does the “polymerase ribozyme fitness (log ratio)” value read?
**A.** -3.29

**Q.** Which “polymerase ribozyme fitness (log ratio)” value does the source give for U54C G122A G128U here?
**A.** -3.12

**Q.** For U55A C101G, which “polymerase ribozyme fitness (log ratio)” value is on record?
**A.** -1.85

**Q.** With C53U G57U C62G as the variant, how does the “polymerase ribozyme fitness (log ratio)” value read?
**A.** -2.6

**Q.** For C56A C101U G110A, which “polymerase ribozyme fitness (log ratio)” value is on record?
**A.** -1.05

**Q.** With U54A G113A as the variant, how does the “polymerase ribozyme fitness (log ratio)” value read?
**A.** -1.58

**Q.** For C56G C62U A103U U109G, which “polymerase ribozyme fitness (log ratio)” value is on record?
**A.** -6.92

**Q.** Which “polymerase ribozyme fitness (log ratio)” value does the source give for C53U U59A C89A U130G here?
**A.** -3.42

**Q.** With C56A G71A C86A C104A as the variant, how does the “polymerase ribozyme fitness (log ratio)” value read?
**A.** -6.75

**Q.** With C56A A100C as the variant, how does the “polymerase ribozyme fitness (log ratio)” value read?
**A.** -1.19

**Q.** With U55C G61A C104A as the variant, how does the “polymerase ribozyme fitness (log ratio)” value read?
**A.** -1.51
